Results: US20080214408A1

Assays:
[1] = target: GFP-Tus-His6 fusion protein (E. coli) (UniProt P16525); assay: protein microarray, fluorescence; fusion protein made in situ and held on plasmid with wild-type Ter site, detected with Cy3-labeled anti-his antibody
[2] = target: GFP-Tus-His6 fusion protein (E. coli) (UniProt P16525); assay: protein microarray, fluorescence; fusion protein made in situ and held on plasmid with wild-type Ter site, detected with Cy5-labeled anti-his antibody
[3] = target: GFP-Tus-His6 fusion protein (E. coli) (UniProt P16525); assay: protein microarray, fluorescence; fusion protein made in situ and held on plasmid with mutant Ter site (SEQ ID NO: 12), detected with Cy3-labeled anti-his antibody
[4] = target: GFP-Tus-His6 fusion protein (E. coli) (UniProt P16525); assay: protein microarray, fluorescence; fusion protein made in situ and held on plasmid with mutant Ter site (SEQ ID NO: 12), detected with Cy5-labeled anti-his antibody

Cy3 Signal Intensity (Background subtracted) (arbitrary units) [1]: 20600
Cy5 Signal Intensity (Background subtracted) (arbitrary units) [2]: 14000
Cy3 Signal Intensity (Background subtracted) (arbitrary units) [3]: 10900
Cy5 Signal Intensity (Background subtracted) (arbitrary units) [4]: 4740
Substance: monoclonal antibody to the poly-his tag (Sigma-Aldrich), labeled with Cy3 or Cy5
